Data: article PMC10194908 (2023)

T1: Recombinant NS1 from DENV-4-Dominica/814669/1981 (dengue virus serotype 4 …, UniProt P09866 775-1126)
T1 chain: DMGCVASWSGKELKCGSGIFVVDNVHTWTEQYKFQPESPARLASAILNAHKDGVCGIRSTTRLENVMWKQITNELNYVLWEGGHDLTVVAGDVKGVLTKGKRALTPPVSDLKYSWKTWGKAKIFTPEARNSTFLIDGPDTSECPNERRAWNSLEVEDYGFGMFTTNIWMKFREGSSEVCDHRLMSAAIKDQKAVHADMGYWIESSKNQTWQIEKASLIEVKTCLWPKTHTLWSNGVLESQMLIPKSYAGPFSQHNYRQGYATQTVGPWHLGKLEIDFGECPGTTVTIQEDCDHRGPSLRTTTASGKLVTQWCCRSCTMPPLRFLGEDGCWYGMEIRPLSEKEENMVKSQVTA

T2: Recombinant NS1 from DENV-3-Sri Lanka D3/H/IMTSSA-SRI/2000/1266 (dengue virus serotype 3 (Sri Lanka …, UniProt Q6YMS4 774-1125))
T2 chain: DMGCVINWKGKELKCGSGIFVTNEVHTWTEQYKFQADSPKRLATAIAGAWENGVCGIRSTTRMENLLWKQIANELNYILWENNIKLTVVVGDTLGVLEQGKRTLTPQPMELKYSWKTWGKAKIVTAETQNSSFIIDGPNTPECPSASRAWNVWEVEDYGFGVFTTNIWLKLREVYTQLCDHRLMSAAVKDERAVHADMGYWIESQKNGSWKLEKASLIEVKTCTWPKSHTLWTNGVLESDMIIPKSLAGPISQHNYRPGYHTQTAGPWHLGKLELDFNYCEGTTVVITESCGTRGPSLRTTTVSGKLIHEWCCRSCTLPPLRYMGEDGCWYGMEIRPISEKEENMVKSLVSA

B1: Recombinant NS1 from DENV-1-Nauru/Western Pacific/1974 (natural protein)
chain: DSGCVINWKGRELKCGSGIFVTNEVHTWTEQYKFQADSPKRLSAAIGKAWEEGVCGIRSATRLENIMWKQISNELNHILLENDMKFTVVVGDVSGILAQGKKMIRPQPMEHKYSWKSWGKAKIIGADVQNTTFIIDGPNTPECPDNQRAWNIWEVEDYGFGIFTTNIWLKLRDSYTQVCDHRLMSAAIKDSKAVHADMGYWIESEKNETWKLARASFIEVKTCIWPKSHTLWSNGVLESEMIIPKIYGGPISQHNYRPGYFTQTAGPWHLGKLELDFDLCEGTTVVVDEHCGNRGPSLRTTTVTGKTIHEWCCRSCTLPPLRFKGEDGCWYGMEIRPVKEKEENLVKSMVSA

Tests used:
Assay in all cases: BLI
[1] = molecular target: T3, Recombinant NS1 from DENV-2-Thailand/16681/84 (dengue virus serotype 2 …, UniProt P29990 776-1127)
T3 sequence (P29990 776-1127): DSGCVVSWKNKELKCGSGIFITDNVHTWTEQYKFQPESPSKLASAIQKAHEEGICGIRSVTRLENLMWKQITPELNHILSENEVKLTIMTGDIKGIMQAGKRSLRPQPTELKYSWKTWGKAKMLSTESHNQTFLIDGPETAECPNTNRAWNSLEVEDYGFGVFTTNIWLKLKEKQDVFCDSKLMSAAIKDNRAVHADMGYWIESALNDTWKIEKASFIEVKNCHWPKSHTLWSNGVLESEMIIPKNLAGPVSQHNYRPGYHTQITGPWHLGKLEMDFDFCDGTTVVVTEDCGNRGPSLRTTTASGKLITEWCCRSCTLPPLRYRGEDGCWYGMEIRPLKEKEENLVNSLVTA

[2] = molecular target: B1
[3] = molecular target: T1, Recombinant NS1 from …
[4] = molecular target: T3, Recombinant NS1 from …; remark: listed apart in the source
[5] = molecular target: B1
[6] = molecular target: T1, Recombinant NS1 from …
[7] = molecular target: Den3
[8] = molecular target: T2, Recombinant NS1 from DENV-3-Sri Lanka …
[9] = molecular target: T2, Recombinant NS1 from DENV-3-Sri Lanka …

Binder	koff [1] [s⁻¹]	koff [2] [s⁻¹]	koff [3] [s⁻¹]	Kd [4] [pM]	Kd [5] [nM]	Kd [6] [nM]	Kd [7] [pM]	koff [7] [s⁻¹]	koff [8] [s⁻¹]	Kd [9] [nM]
D6 (antibody, V domains shown) VH: EVQLVQSGGGLVQPGRSLRLSCAASGFTFQDYAMHWVRQAPGKGLEWVSGIGRDSGTIDYADSVKGRFTISRDNAKNSLYLQMNSLRAEDTALYYCAKISNGYRPDNWGQGTLVTVSS VL: VLTQPPSVSVSPGQTARITCSGDVLAKRYARWFQQKPGQAPVVVIYKDSERPSGIPERLSGSSSGTTVTLTISGAQVEDEADYYCYCAADNNVVFGGGTKLTVL	< 1e-07	0.000344	5.9e-05	< 1	2.67	0.17				
B1							< 1	< 1e-07		
D8 (antibody, V domains shown) VH: QVQLQESGPGLVKPSETLPLTCTVSGGSISNNGFYWGWIRQPPGKGLEWIGNIYYRGSTYYNPSLNSRVTISVDTSKNQFSLQLNSVTAADTAVYYCARLGIQLWFAIDYWGQGTLVTVSS VL: SVLTQPPAVSVALGQTVRITCQGDSLRSSYASWYQQKPGQAPVLIFYAKNNRPSGIPDRFSGSSSGNTASLTITGAQAEDEADYYCYSRDSSGNLWVFGGGTKLTVL	< 1e-07	9.79e-05	< 1e-07	< 1	1.06	< 0.001			6.68e-05	0.569
A2 (antibody, V domains shown) VH: QVQLQESGGGVVQPGRSLRLFCAASGFTFSAFSTYAIHWVRQAPGKGLEWVAVISYDANNKYYADSVKGRFTISRDNFKSTLFLQMNSLRAEDTAVYYCARDRSDSGYDSYYYYYGMDVWGQGTTVTVSS VL: QSVVTQPPSVSAAPGQKVTISCSGSSSNIGRNYVSWYQHLPGTAPKLLIYDNNKRRSGIPDRFSGSKSDTTATLGITGLQTVDEADYYCGSWDNSLSAYVFGTGTKVTV	< 1e-07	0.000221	0.0016	< 1	1.61	4.41			< 1e-07	< 0.001
